Results: publication PMC6160764 (Theranostics, 2018)

Target: Recombinant human HER3-Fc chimera protein (Homo sapiens, UniProt P21860)
Assay: BLI

Chain of Recombinant human HER3-Fc chimera protein (P21860 20-643, change not shown): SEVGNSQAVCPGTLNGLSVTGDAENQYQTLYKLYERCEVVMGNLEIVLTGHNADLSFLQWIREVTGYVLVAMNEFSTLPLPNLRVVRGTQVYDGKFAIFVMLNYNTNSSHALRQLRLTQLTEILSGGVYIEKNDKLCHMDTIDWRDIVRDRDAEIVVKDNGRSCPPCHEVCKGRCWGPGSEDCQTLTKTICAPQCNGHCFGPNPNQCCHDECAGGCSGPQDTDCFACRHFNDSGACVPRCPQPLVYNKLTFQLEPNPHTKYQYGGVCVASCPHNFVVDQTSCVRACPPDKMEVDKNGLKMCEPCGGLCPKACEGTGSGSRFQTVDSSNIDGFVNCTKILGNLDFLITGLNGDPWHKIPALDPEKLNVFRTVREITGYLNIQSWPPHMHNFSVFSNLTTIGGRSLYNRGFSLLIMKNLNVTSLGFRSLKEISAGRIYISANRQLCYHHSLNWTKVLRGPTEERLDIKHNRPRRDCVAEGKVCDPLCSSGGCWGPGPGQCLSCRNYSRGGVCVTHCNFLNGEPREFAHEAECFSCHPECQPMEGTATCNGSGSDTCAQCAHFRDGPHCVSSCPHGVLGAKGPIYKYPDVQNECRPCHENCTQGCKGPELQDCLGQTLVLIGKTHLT

Kd [nM]	Binder
20 ± 1.4	anti-HER3 scFv (scFv, V domains shown) VH: not shown VL: DIQMTQSPSSLSASVGDRVTITCRASQGISNYLAWYQQKPGKAPKLLIYAASSLQSGVPSRFSGSRSGTDFTLTISSLQPEDFATYYCQQYGWLPLTFGQGTKVEIK
29 ± 3.7	IRDye800CW-labeled anti-HER3 scFv (scFv, V domains shown) VH: not shown VL: DIQMTQSPSSLSASVGDRVTITCRASQGISNYLAWYQQKPGKAPKLLIYAASSLQSGVPSRFSGSRSGTDFTLTISSLQPEDFATYYCQQYGWLPLTFGQGTKVEIK
